Experimental data taken from patent US20160090422A1 (Genentech, published 2016).

How the values were obtained:
rhesus monkey CRTh2 [1] = biological target: T1, rhesus monkey CRTh2 (rhesus monkey, UniProt Q9Y5Y4 1-395 (human entry)); test: flow cytometry, 293 cells expressing amino-terminal gD-tagged rhesus CRTh2; antibody at 10, 1 and 0.1 ug/ml
T1 construct: also native on primary rhesus basophils and eosinophils; also called rhesus CRTh2
T1 chain: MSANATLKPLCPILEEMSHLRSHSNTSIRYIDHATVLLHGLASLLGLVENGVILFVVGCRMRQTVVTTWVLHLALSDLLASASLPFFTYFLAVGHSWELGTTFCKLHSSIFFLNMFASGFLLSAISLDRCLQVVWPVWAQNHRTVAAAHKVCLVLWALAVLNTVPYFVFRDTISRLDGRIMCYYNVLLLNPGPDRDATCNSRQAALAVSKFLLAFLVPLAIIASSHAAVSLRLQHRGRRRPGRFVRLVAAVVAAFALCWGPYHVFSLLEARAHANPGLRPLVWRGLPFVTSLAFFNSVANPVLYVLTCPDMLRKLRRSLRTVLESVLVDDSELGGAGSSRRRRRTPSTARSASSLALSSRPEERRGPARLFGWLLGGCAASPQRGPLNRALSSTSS

human CRTh2 [2] = biological target: T2, human CRTh2 (human, UniProt Q9Y5Y4 1-395); test: radioligand cell binding assay (Scatchard), Fab, 293 cells expressing human CRTh2
T2 construct: also native CRTh2 on primary human basophils, eosinophils and Th2 cells; also called hCRTh2; chemoattractant receptor-homologous molecule expressed on T helper 2 cells
T2 sequence: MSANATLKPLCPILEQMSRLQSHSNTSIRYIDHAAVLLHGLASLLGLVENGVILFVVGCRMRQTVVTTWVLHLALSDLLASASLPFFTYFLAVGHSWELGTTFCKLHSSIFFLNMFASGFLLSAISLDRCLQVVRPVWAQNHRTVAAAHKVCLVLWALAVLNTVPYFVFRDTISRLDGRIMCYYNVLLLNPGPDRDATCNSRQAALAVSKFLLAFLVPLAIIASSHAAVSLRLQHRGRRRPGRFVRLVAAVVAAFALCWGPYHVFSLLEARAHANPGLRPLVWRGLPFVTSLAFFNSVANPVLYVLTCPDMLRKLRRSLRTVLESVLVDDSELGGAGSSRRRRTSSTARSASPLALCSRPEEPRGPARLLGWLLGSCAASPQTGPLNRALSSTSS
Procedure: (§1) The equilibrium dissociation constants (KD) for anti-CRTH2 antibodies binding to cells expressing recombinant CRTh2 receptor were determined using a radioligand cell binding assay. […] The cells expressing the CRTh2 receptor were incubated for 2 hours at room temperature with a fixed concentration of iodinated anti-CRTh2 antibody combined with increasing concentrations of unlabeled anti-CRTh2 antibody and including a zero-added, buffer only sample. After the 2-hour incubation, the competition reactions were transferred to a Millipore Multiscreen filter plate and washed 4 times with binding buffer to separate the free from bound iodinated antibody. The filters were counted on a Wallac Wizard 1470 gamma counter. The binding data was evaluated using NewLigand software (Genentech), which uses the fitting algorithm of Munson and Rodbard to determine the binding affinity of the anti-CRTh2 antibody (Munson and Rodbard, Anal. Biochem, 1980; 107: 220-239).
(§2) To obtain a direct measurement of the KD value of humanized antibodies h19A2.v12 and h19A2.v60, Fab fragments of these antibodies were generated and subjected to radioligand cell binding assays (FIG. 4B).

cynomolgus monkey CRTh2 [3] = biological target: T3, cynomolgus monkey CRTh2 (cynomolgus monkey, UniProt Q9Y5Y4 1-395 (human entry)); test: radioligand cell binding assay (Scatchard), Fab, 293 cells expressing cynomolgus monkey CRTh2
T3 construct: also native on primary cyno basophils and eosinophils; also called cyno CRTh2; cynomologous CRTh2
T3 chain: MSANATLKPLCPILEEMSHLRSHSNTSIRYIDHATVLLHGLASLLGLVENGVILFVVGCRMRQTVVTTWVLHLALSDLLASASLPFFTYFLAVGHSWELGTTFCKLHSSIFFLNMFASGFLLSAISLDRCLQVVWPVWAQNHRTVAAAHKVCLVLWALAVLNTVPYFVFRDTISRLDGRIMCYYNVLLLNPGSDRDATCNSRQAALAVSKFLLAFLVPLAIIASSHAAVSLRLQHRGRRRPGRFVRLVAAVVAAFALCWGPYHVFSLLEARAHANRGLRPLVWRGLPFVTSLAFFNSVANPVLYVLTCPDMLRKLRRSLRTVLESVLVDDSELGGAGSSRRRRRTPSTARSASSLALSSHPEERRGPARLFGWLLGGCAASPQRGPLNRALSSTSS
Procedure: After the 2-hour incubation, the competition reactions were transferred to a Millipore Multiscreen filter plate and washed 4 times with binding buffer to separate the free from bound iodinated antibody. The filters were counted on a Wallac Wizard 1470 gamma counter. The binding data was evaluated using NewLigand software (Genentech), which uses the fitting algorithm of Munson and Rodbard to determine the binding affinity of the anti-CRTh2 antibody (Munson and Rodbard, Anal. Biochem, 1980; 107: 220-239).
as §2
(§3) Radiolabeled ligand analysis with homologous competition was performed to assess the dissociation constant (KD) of anti-CRTh2 antibodies to surface expressed human and cynomolgus monkey CRTh2 on 293 cells. To obtain a direct measurement of the KD value of humanized antibodies h19A2.v52 and h19A2.v46, Fab fragments of these antibodies were generated (FIG. 16).

rhesus monkey CRTh2 [4] = biological target: T1, rhesus monkey CRTh2; test: flow cytometry, 293 cells expressing rhesus CRTh2; antibody at 0.55, 0.18, 0.06, 0.02 and 0.006 ug/ml [Cont.]
cynomolgus monkey CRTh2 [5] = biological target: T3, cynomolgus monkey CRTh2; test: ratio of Scatchard KD values, cyno against human CRTh2 on 293 cells
Procedure: The filters were counted on a Wallac Wizard 1470 gamma counter. The binding data was evaluated using NewLigand software (Genentech), which uses the fitting algorithm of Munson and Rodbard to determine the binding affinity of the anti-CRTh2 antibody (Munson and Rodbard, Anal. Biochem, 1980; 107: 220-239).
as §2, §3

human CRTh2 [6] = biological target: T2, human CRTh2; test: flow cytometry, 293 cells expressing amino-terminal gD-tagged human CRTh2; antibody at 10, 1 and 0.1 ug/ml
cynomolgus monkey CRTh2 [7] = biological target: T3, cynomolgus monkey CRTh2; test: flow cytometry, 293 cells expressing cynomolgus CRTh2 [Cont.]
rhesus monkey CRTh2 [8] = biological target: T1, rhesus monkey CRTh2; test: flow cytometry, 293 cells expressing rhesus CRTh2 [Cont.]
human CRTh2 [9] = biological target: T2, human CRTh2; test: flow cytometry on basophils and eosinophils of human PBMC; antibody at 5 and 0.5 ug/ml, labelled anti-mouse IgG [Cont.]
human CRTh2 [10] = biological target: T2, human CRTh2; test: radioligand cell binding assay with homologous competition (Scatchard), 293 cells expressing human CRTh2
Procedure: as §1, §2

B1: humanized and engineered anti-CRTh2 antibody hu19A2.v12 (antibody, human IgG1, kappa, V domains shown)
VH: EVQLVESGGGLVQPGGSLRLSCAASGFTFSSYSMSWVRQAPGKGLEWVAYISNGGSTTDYPGTVEGRFTISRDNSKNTLYLQMNSLRAEDTAVYYCARHRTNWDFDYWGQGTLVTVSS
VL: DIQMTQSPSSLSASVGDRVTITCRASENIYWNLAWYQQKPGKAPKLVVYAATQLADGVPSRFSGSGSGTDYTLTISSLQPEDFATYYCQHFWITPWTFGQGTKVEIKR
notes: Human IgG1; whole antibody as used in flow cytometry; also called h19A2.v12
binding result (rhesus monkey CRTh2 [1]): binds

B2: h19A2.v46 Fab fragment (Fab, V domains shown)
VH: EVQLVESGGGLVQPGGSLRLSCAASGFTFSSYLMSWVRQAPGKGLEWVARISNGGSTTDYPGTVEGRFTISRDNSKNTLYLQMNSLRAEDTAVYYCARHRTNWDFDYWGQGTLVTVSS
VL: DIQMTQSPSSLSASVGDRVTITCRASENIYWNLAWYQQKPGKAPKLVVYAATQLADGVPSRFSGSGSGTDYTLTISSLQPEDFATYYCQHFWITPWTFGQGTKVEIK
notes: Fab fragment of the humanized IgG; also called h19A2.v46 (Fab fragment of IgG)
Kd (human CRTh2 [2]): 6.4 nM | Kd (cynomolgus monkey CRTh2 [3]): 8.6 nM

B3: humanized affinity matured anti-CRTh2 antibody hu19A2.v46 (antibody, human IgG1, kappa, V domains shown)
VH: EVQLVESGGGLVQPGGSLRLSCAASGFTFSSYLMSWVRQAPGKGLEWVARISNGGSTTDYPGTVEGRFTISRDNSKNTLYLQMNSLRAEDTAVYYCARHRTNWDFDYWGQGTLVTVSS
VL: DIQMTQSPSSLSASVGDRVTITCRASENIYWNLAWYQQKPGKAPKLVVYAATQLADGVPSRFSGSGSGTDYTLTISSLQPEDFATYYCQHFWITPWTFGQGTKVEIKR
notes: Human IgG1; whole antibody as used in flow cytometry; also called h19A2.v46
binding result (rhesus monkey CRTh2 [4]): binds

B4: h19A2.v12 Fab fragment (Fab, V domains shown)
VH: EVQLVESGGGLVQPGGSLRLSCAASGFTFSSYSMSWVRQAPGKGLEWVAYISNGGSTTDYPGTVEGRFTISRDNSKNTLYLQMNSLRAEDTAVYYCARHRTNWDFDYWGQGTLVTVSS
VL: DIQMTQSPSSLSASVGDRVTITCRASENIYWNLAWYQQKPGKAPKLVVYAATQLADGVPSRFSGSGSGTDYTLTISSLQPEDFATYYCQHFWITPWTFGQGTKVEIK
notes: Fab fragment of the humanized IgG, 125I-labelled in the radioligand assay; also called h19A2.v12 (Fab fragment of IgG); h19A2.12
Kd (human CRTh2 [2]): 51 nM | relative binding affinity for human versus cyno CRTh2 (cynomolgus monkey CRTh2 [5]): ≤ 3 fold | Kd (cynomolgus monkey CRTh2 [3]): 152 nM

B5: humanized affinity matured anti-CRTh2 antibody hu19A2.v52 (antibody, human IgG1, kappa, V domains shown)
VH: EVQLVESGGGLVQPGGSLRLSCAASGFTFSSYLMSWVRQAPGKGLEWVARISNGGSTTDYPGTVEGRFTISRDNSKNTLYLQMNSLRAEDTAVYYCARHRTNWDFDYWGQGTLVTVSS
VL: DIQMTQSPSSLSASVGDRVTITCRASENIYYNLAWYQQKPGKAPKLVVYAATQLADGVPSRFSGSGSGTDYTLTISSLQPEDFATYYCQHFWITPWTFGQGTKVEIKR
notes: Human IgG1; whole antibody as used in flow cytometry and the cAMP assay; also called h19A2.v52; h19A2.52
binding result (rhesus monkey CRTh2 [4]): binds

B6: humanized anti-CRTh2 antibody hu19A2.v1 (antibody, human IgG1, kappa, V domains shown)
VH: EVQLVESGGGLVQPGGSLRLSCAASGFTFSSYSMSWVRQAPGKGLEWVAYISNGGSTTYYPGTVEGRFTISRDNSKNTLYLQMNSLRAEDTAVYYCARHRTNWDFDYWGQGTLVTVSS
VL: DIQMTQSPSSLSASVGDRVTITCRASENIYSNLAWYQQKPGKAPKLVVYAATQLADGVPSRFSGSGSGTDYTLTISSLQPEDFATYYCQHFWITPWTFGQGTKVEIKR
notes: also called h19A2.v1
binding result (human CRTh2 [6]): binds

B7: h19A2.v52 Fab fragment (Fab, V domains shown)
VH: EVQLVESGGGLVQPGGSLRLSCAASGFTFSSYLMSWVRQAPGKGLEWVARISNGGSTTDYPGTVEGRFTISRDNSKNTLYLQMNSLRAEDTAVYYCARHRTNWDFDYWGQGTLVTVSS
VL: DIQMTQSPSSLSASVGDRVTITCRASENIYYNLAWYQQKPGKAPKLVVYAATQLADGVPSRFSGSGSGTDYTLTISSLQPEDFATYYCQHFWITPWTFGQGTKVEIK
notes: Fab fragment of the humanized IgG; also called h19A2.v52 (Fab fragment of IgG); h19A2.52
Kd (human CRTh2 [2]): 13.7 nM | relative binding affinity for human versus cynomolgus CRTh2 (cynomolgus monkey CRTh2 [5]): ≤ 2 fold | Kd (cynomolgus monkey CRTh2 [3]): 21.3 nM

B8: h19A2.v60 Fab fragment (Fab, V domains shown)
VH: EVQLVESGGGLVQPGGSLRLSCAASGFTFSSYLMSWVRQAPGKGLEWVARISNGGSTTDYPGTVEGRFTISRDNSKNTLYLQMNSLRAEDTAVYYCARHRTNWDFDYWGQGTLVTVSS
VL: DIQMTQSPSSLSASVGDRVTITCRASENIYYNLAWYQQKPGKAPKLLIYAATQLAEGVPSRFSGSGSGTDYTLTISSLQPEDFATYYCQHFWITPWTFGQGTKVEIK
notes: Fab fragment of the humanized IgG; also called h19A2.v60 (Fab fragment of IgG)
Kd (human CRTh2 [2]): 56 nM | Kd (cynomolgus monkey CRTh2 [3]): 39 nM

B9: murine anti-CRTh2 antibody 31A5 (antibody, mouse IgG2a, V domains shown)
VH: QVQLKESGPGLVAPSQSLSITCTVSGFSLTGYGVNWVRQPPGKGLEWLGMIWDDGTTDFDSALRSRLSISKDNSKSQVFLKMNSLQTDDTARYFCARGDYGYAMDYWGQGTSVTVSS
VL: DIQMTQSPASLSVSVGETVTITCRASVNIYSNLAWYQQRQGKSPQLLVYAATNLAEGVPSRFSGSGSGTQYSLKINSLQSEDFGSYYCQHFWVTPYTFGGGTKLEIK
notes: Mouse monoclonal (hybridoma antibody; heavy chain also recloned with mouse IgG2a Fc); also called mu31A5
binding result (cynomolgus monkey CRTh2 [7]): no binding (tested: 20 ug/ml) | binding result (rhesus monkey CRTh2 [8]): no binding (tested: 20 ug/ml)

B10: murine anti-CRTh2 antibody 3C12 (antibody, mouse IgG2a, V domains shown)
VH: QVQLQQSGADLVRPGTSVKVSCKASGYAFTNYLIDWVKQRPGQGLEWIGAIHPGSGRTHYNEKFKGKATLTADKSSSAAYMQISSLTSDDSAVFFCARSGGSSFDYYAMDYWGQGTSVTVSS
VL: DIQMTQSPSSLSASLGERVSLTCRASQEIGGYLSWLQQKPDGTFKRLIYAASTLDSGVPKRFSGSRSGSDYSLTISSLESEDFADYYCLQYANYPYTFGGGTKLEIK
notes: Mouse monoclonal (hybridoma antibody; heavy chain also recloned with mouse IgG2a Fc); also called mu3C12
binding result (cynomolgus monkey CRTh2 [7]): no binding (tested: 20 ug/ml) | binding result (human CRTh2 [9]): binds | binding result (rhesus monkey CRTh2 [8]): no binding (tested: 20 ug/ml)

B11: murine anti-CRTh2 antibody 8B1 (antibody, V domains shown)
VH: QVQLQQSGTGLVRPGTSVRVSCKASGYAFITYLIEWIKQRPGQGLEWIGVIHPGSGNSHYNEKFKGKATLTADTSSSTAYMQLSSLTSGDSAVYFCARSGSSSFDYYAMDFWGQGTSVTVSS
VL: DIQMTQSPSSLSASLGERVSLTCRASQEISGYFSWLQQKPDGTIKRLIYAASTLDSGVPKRFSGSRSGSDYSLTISSLESEDFADYYCLQYANYPYTFGGGTKLEIK
notes: Mouse monoclonal, hybridoma antibody or recloned with mouse IgG2a Fc; whole IgG in the Scatchard assay; also called mu8B1; Mab 8B1
Kd (human CRTh2 [10]): 2.6 nM
